In test [1] the target is IL-2/IL-15Rβγ on kit225 cells (UniProt P14784). As to the kind of experiment: cell-based or functional assay.
The target is the same in test [2]. Put plainly: cell-based or functional assay. The source holds these as a separate data set.
Test [3] deals with PD-1 on PD-1 Effector Cells (UniProt Q15116). As to the kind of experiment: cell-based or functional assay.
Another test deals with FcγRIIIa F158 (human) (UniProt P08637). Put plainly: SPR; ratio of affinity (1/Kd) for FcγRIIIa F158 to affinity for FcγRIIb. (In general: SPR reads the build-up and loss of mass on a sensor chip optically.)
The next test has as its target FcγRIIIa V158 (human) (UniProt P08637). As to the kind of experiment: SPR; ratio of affinity (1/Kd) for FcγRIIIa V158 to affinity for FcγRIIb.

Where two headings read alike, the source gives them in different places.

Chain of IL-2/IL-15Rβγ on kit225 cells (P14784 27-551 limits assumed, chain 1 of 2): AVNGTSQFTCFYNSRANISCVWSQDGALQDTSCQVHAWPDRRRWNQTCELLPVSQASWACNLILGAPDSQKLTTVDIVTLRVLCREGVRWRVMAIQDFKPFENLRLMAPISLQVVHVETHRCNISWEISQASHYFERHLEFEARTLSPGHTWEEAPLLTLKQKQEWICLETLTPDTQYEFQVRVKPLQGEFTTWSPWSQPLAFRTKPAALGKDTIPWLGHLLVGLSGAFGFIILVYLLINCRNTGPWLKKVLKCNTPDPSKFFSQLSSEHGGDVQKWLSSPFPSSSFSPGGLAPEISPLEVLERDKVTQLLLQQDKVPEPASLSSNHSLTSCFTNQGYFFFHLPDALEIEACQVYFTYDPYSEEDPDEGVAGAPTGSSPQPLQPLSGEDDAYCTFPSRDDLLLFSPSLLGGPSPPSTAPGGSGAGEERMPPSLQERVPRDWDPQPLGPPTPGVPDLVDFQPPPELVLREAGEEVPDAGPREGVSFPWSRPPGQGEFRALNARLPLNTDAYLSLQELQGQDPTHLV
Chain of IL-2/IL-15Rβγ on kit225 cells (P31785 23-369 limits assumed, chain 2 of 2, further chain): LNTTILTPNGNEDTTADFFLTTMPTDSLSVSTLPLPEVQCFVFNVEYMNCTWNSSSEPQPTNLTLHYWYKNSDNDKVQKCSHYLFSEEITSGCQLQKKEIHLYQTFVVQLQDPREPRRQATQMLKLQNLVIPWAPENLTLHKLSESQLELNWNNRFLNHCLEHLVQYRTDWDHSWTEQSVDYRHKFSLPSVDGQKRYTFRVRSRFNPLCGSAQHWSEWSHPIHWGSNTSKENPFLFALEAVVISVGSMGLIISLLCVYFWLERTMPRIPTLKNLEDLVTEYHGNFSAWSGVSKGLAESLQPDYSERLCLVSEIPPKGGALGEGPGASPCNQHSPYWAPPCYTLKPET
Chain of PD-1 on PD-1 Effector Cells (Q15116 25-288 limits assumed): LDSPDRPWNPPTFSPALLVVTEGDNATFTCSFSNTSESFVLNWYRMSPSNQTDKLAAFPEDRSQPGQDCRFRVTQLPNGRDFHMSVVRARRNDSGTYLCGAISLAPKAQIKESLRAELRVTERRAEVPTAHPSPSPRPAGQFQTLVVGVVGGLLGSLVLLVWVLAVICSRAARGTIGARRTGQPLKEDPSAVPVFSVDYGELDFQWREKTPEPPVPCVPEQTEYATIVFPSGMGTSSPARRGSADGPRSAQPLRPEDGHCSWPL

For PD1-IL2v, in test [1], the EC50 kit225 cells was 3.02 nM and the Relative potency to SOT101 was determined as 1.19%. In test [2], the EC50 kit225 cells was 3.94 nM, the EC50 on kit225 cells was 3.02 nM and the Relative potency to SOT201 turned out to be 455%. For the same substance, in test [3], the EC50, PD-1/PD-L1 Blockade Bioassay worked out at 4.57 nM and the Relative potency vs Keytruda worked out at 38.6%.
On to SOT201 wt (with RLI2AQ), for which, in test [1], the EC50 kit225 cells was 0.249 nM and the Relative potency to SOT101 is 14.4%.
For the substance Zolbetuximab (antibody), the A/I (F158) with FcγRIIIa F158 (human) was found to be 32.9. In addition, the A/I (V158) in the test with FcγRIIIa V158 (human) was 161.

Values taken from patent publication US20260115255A1.
